From paper PMC10786891, “Massively parallel profiling of RNA-targeting CRISPR-Cas13d”
Where a chain is given by its changes, count along the chain named. In names and notes the source's numbering stands.

B1: target 1 insC 3' of 9,insA 3' of 6 (mixed)
RNA 1: CACCCGUGCAAAAAUGCAGGGGUCUAAAACUGAGCGGAUAACCUCUCUAUGG
RNA 2: GGGAAUGGAUCCACAUCUACGAAUUCGUACCAUAGAGAGGUUACUCCAGCUCACCGAGAUCGGAAGAGCACACGU
B2: target 1 insU 3' of 20,insU 3' of 7 (mixed)
RNA 1: B1 RNA 1
RNA 2: GGGAAUGGAUCCACAUCUACGAAUUCGUACCAUUAGAGAGGUUAUCUCGCUCACCGAGAUCGGAAGAGCACACGU
B3: target 1 U8C,A9C (mixed)
RNA 1: B1 RNA 1
RNA 2: GGGAAUGGAUCCACAUCUACGAAUUCGUACCAUAGAGAGGUUCCCCGCUCACCGAGAUCGGAAGAGCACACGU
B4: target 1 insC 3' of 13,insC 3' of 13 (mixed)
RNA 1: B1 RNA 1
RNA 2: B1 RNA 2 with G40C, U41C, U42G, A43U, C44U, U45A, C46U, A48C
B5: target 1 insC 3' of 9,insA 3' of 8 (mixed)
RNA 1: B1 RNA 1
RNA 2: B1 RNA 2 with C46A, A48C
B6: target 1 insG 3' of 22,insA 3' of 5 (mixed)
RNA 1: B1 RNA 1
RNA 2: B2 RNA 2 with C31G, A32C, U33A, U47C, C48G, G49A
B7: target 1 A1U,A20U (mixed)
RNA 1: B1 RNA 1
RNA 2: B3 RNA 2 with A32U, C43A, C44U, A51U
B8: target 1 insU 3' of 17,insG 3' of 16 (mixed)
RNA 1: B1 RNA 1
RNA 2: GGGAAUGGAUCCACAUCUACGAAUUCGUACCAUAGUAGGAGGUUAUCCGCUCACCGAGAUCGGAAGAGCACACGU
B9: target 1 C6U,U8A (mixed)
RNA 1: B1 RNA 1
RNA 2: B3 RNA 2 with C43A, C44A, C46U
B10: target 1 G15A (mixed)
RNA 1: B1 RNA 1
RNA 2: B3 RNA 2 with G37A, C43A, C44U
B11: target 1 insA 3' of 21,insU 3' of 4 (mixed)
RNA 1: B1 RNA 1
RNA 2: B2 RNA 2 with U33A, U47C, C48G, G49C, C50U
B12: target 1 G17A,U19A (mixed)
RNA 1: B1 RNA 1
RNA 2: B3 RNA 2 with U33A, G35A, C43A, C44U
B13: target 1 C2U (mixed)
RNA 1: B1 RNA 1
RNA 2: B3 RNA 2 with C43A, C44U, C50U
B14: target 1 C2G,A9U (mixed)
RNA 1: B1 RNA 1
RNA 2: B3 RNA 2 with C43U, C44U, C50G
B15: target 1 A1U,G15A (mixed)
RNA 1: B1 RNA 1
RNA 2: B3 RNA 2 with G37A, C43A, C44U, A51U
B16: target 1 del2,del16 (mixed)
RNA 1: B1 RNA 1
RNA 2: GGGAAUGGAUCCACAUCUACGAAUUCGUACCAUAGGAGGUUAUCCGCUACCGAGAUCGGAAGAGCACACGU
B17: target 1 A1G,G15A (mixed)
RNA 1: B1 RNA 1
RNA 2: B3 RNA 2 with G37A, C43A, C44U, A51G
B18: target 1 insC 3' of 10,insA 3' of 6 (mixed)
RNA 1: B1 RNA 1
RNA 2: B1 RNA 2 with A43C, C44A
B19: target 1 C4U (mixed)
RNA 1: B1 RNA 1
RNA 2: B3 RNA 2 with C43A, C44U, C48U
B20: target 1 insA 3' of 19,insU 3' of 17 (mixed)
RNA 1: B1 RNA 1
RNA 2: B8 RNA 2 with G35A, U36G, A37U, G38A
B21: target 1 C7A,G17U (mixed)
RNA 1: B1 RNA 1
RNA 2: B3 RNA 2 with G35U, C43A, C44U, C45A
B22: target 1 U8G,U11A (mixed)
RNA 1: B1 RNA 1
RNA 2: B3 RNA 2 with U41A, C43A, C44G
B23: target 1 C2U,C21U (mixed)
RNA 1: B1 RNA 1
RNA 2: B3 RNA 2 with C31U, C43A, C44U, C50U
B24: target 1 U8C,C21U (mixed)
RNA 1: B1 RNA 1
RNA 2: B3 RNA 2 with C31U, C43A
B25: target 1 insA 3' of 15,insA 3' of 10 (mixed)
RNA 1: B1 RNA 1
RNA 2: B1 RNA 2 with G39A, U41G, A43U, C44A, U45A, C46U, A48C
B26: target 1 C2U,U11A (mixed)
RNA 1: B1 RNA 1
RNA 2: B3 RNA 2 with U41A, C43A, C44U, C50U
B27: target 1 G12U,C22U (mixed)
RNA 1: B1 RNA 1
RNA 2: B3 RNA 2 with C30U, G40U, C43A, C44U
B28: target 1 A1U,C2U (mixed)
RNA 1: B1 RNA 1
RNA 2: B3 RNA 2 with C43A, C44U, C50U, A51U
B29: target 1 del7,del13 (mixed)
RNA 1: B1 RNA 1
RNA 2: B16 RNA 2 with G36A, A37G, G38A, C45G, G46C, C47U, U48C
B30: target 1 U8C,G15A (mixed)
RNA 1: B1 RNA 1
RNA 2: B3 RNA 2 with G37A, C43A
B31: target 1 A1G,C2U (mixed)
RNA 1: B1 RNA 1
RNA 2: B3 RNA 2 with C43A, C44U, C50U, A51G
B32: target 1 insU 3' of 9,insG 3' of 2 (mixed)
RNA 1: B1 RNA 1
RNA 2: B1 RNA 2 with C44U, A48G, G49C, C50U, U51C, C52G
B33: target 1 G17C,C22U (mixed)
RNA 1: B1 RNA 1
RNA 2: B3 RNA 2 with C30U, G35C, C43A, C44U
B34: target 1 insC 3' of 14,insA 3' of 10 (mixed)
RNA 1: B1 RNA 1
RNA 2: B1 RNA 2 with G39C, U41G, A43U, C44A, U45A, C46U, A48C

Target: T1, EsCas13d, nuclease-dead (Eubacterium siraeum, UniProt B0MS50, R295A;H300A;R849A;H854A)
T1 sequence: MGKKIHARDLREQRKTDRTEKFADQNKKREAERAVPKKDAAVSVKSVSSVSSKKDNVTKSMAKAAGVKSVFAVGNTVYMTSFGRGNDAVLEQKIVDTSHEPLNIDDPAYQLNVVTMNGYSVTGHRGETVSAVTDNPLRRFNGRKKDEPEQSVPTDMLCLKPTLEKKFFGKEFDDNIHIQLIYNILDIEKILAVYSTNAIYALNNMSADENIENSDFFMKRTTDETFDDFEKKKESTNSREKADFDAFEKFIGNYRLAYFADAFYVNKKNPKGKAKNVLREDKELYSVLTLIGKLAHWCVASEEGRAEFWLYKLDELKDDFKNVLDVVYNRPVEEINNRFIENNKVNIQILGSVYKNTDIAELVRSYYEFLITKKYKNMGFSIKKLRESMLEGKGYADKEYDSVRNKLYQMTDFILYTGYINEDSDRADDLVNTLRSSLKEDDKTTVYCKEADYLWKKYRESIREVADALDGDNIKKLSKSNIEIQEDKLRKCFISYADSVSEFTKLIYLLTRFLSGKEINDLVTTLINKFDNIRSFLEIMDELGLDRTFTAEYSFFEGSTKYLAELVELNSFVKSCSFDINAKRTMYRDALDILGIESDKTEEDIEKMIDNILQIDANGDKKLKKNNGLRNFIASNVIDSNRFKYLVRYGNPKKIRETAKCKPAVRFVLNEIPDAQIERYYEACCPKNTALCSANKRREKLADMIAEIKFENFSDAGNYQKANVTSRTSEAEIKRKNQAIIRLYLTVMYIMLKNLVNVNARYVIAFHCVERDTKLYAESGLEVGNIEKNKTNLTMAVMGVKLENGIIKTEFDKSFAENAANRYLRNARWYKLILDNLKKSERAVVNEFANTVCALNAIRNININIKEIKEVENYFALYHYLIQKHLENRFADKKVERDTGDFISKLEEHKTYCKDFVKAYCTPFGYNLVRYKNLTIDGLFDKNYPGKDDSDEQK
Assay: crRNA (strand 1, pre-loaded); Mg2+; 40 mM Tris-HCl pH 7.5, 150 mM NaCl, 6 mM MgCl2, 1 mM DTT, 0.1% Tween-20, 0.2 mg/ml BSA; 25 C; 10 min per concentration, then washed
Settings: tags: His6-TwinStrep-SUMO cleaved; N-terminal SNAP kept (SNAP-Surface 488); label: 3' end held by stalled T7 RNA polymerase

Binder	Kd
B1	14 ± 0.4 nM
B2	28.6 ± 1.5 nM
B3	30.5 ± 2.7 nM
B4	35 ± 5 nM
B5	8.8 ± 0.5 nM
B6	23.1 ± 2.2 nM
B7	35.1 ± 1.9 nM
B8	44 ± 5 nM
B9	15.1 ± 0.5 nM
B10	10.8 ± 0.4 nM
B11	12.5 ± 1 nM
B12	54 ± 8 nM
B13	9.7 ± 0.7 nM
B14	8.7 ± 1 nM
B15	11.2 ± 0.7 nM
B16	82 ± 18 nM
B17	11.1 ± 0.5 nM

Binder	Kd
B18	25.5 ± 2.5 nM
B19	30 ± 4 nM
B20	~38 nM
B21	34 ± 6 nM
B22	27.6 ± 2.2 nM
B23	8.2 ± 0.8 nM
B24	9.6 ± 0.5 nM
B25	9.7 ± 0.6 nM
B26	29.5 ± 3.5 nM
B27	21.7 ± 2.8 nM
B28	9.6 ± 0.5 nM
B29	15.6 ± 1.3 nM
B30	26.8 ± 2.1 nM
B31	8.7 ± 0.7 nM
B32	24.6 ± 3.2 nM
B33	62 ± 11 nM
B34	55 ± 8 nM
